Assay results from the supplement of paper PMC10201428.
± gives the standard deviation of the averaged measurements.

Legend:
[1] = tested on: VchCAST RNA-guided transposition machinery (E. coli BL21(DE3) host, lacZ target); assay: relative integration efficiency (T-RL orientation) vs wild-type transposon end (log2 (normalized fold change)); transposon end mutated: left end; higher = more efficient transposition
Method: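 Pooled, barcoded VchCAST (Tn6677) mini-transposon donor libraries; each variable transposon-end sequence sits in a fixed pDonor mini-transposon context (10-bp barcode and cargo not included). Left- or right-end libraries were co-transformed with pEffector (TniQ-Cascade, TnsABC, lacZ crRNA, T7, 0.1 mM IPTG) into E. coli BL21(DE3) and grown 18 h at 37 C. T-LR and T-RL junction amplicons were sequenced; output/input barcode fold change was normalised to the mean of four wild-type barcodes and log2-transformed. Two biological replicates; zero-count/undetected variants carry floor values (-10 / -15), censored here. Barcode uncoupling by PCR recombination adds noise.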

[2] = tested on: VchCAST RNA-guided transposition machinery (E. coli BL21(DE3) host, lacZ target); assay: relative integration efficiency (T-RL orientation) vs wild-type transposon end (log2 (normalized fold change)); transposon end mutated: right end (5 bp flank + 75 bp right end); higher = more efficient transposition
Method in brief: (§1)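 Pools of 1549 left-end or 1849 right-end barcoded transposon variants were cloned into a pUC57 mini-transposon donor and co-transformed into E. coli BL21(DE3) with a T7-driven effector plasmid carrying a CRISPR array, tniQ-cas8-cas7-cas6 and tnsA-tnsB-tnsC. Plating used 0.1 mM IPTG at 37°C for 18 h, and input plasmids and genomic integration junctions were PCR-amplified for Illumina sequencing, with two biological output replicates and four reference barcodes. Relative integration efficiency is the log-transformed fold change of output over input barcode abundance, normalised to the reference barcodes.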

[3] = tested on: VchCAST RNA-guided transposition machinery (E. coli BL21(DE3) host, lacZ target); assay: relative integration efficiency (T-LR orientation) vs wild-type transposon end (log2 (normalized fold change)); transposon end mutated: right end (5 bp flank + 75 bp right end); higher = more efficient transposition
Method in brief: as §1

Sequence | relative integration efficiency (log2) [1] | relative integration efficiency (log2) [2] | relative integration efficiency (log2) [3]
AATGTTGTCAACCATAAAGTGATATTTAATAATTATTTATAATCAGCAACTTAACCACAAAACAACCATATATTGATATCTCACAAAACAACCATAAGTTGATATTTTTGTGAATCGAGTATTTCAGCAAAACTACTGCAGTAAGAAAGTTA | -8.1 ± 1.2 |  | 
AATGTTGTTCAACCATAAAGTGATATTTAATAATTATTTATAATCAGCAACTTAACCACAAAACAACCATATATTGATATCTCACAAAACAACCATAAGTTGATATTTTTGTGAATCGAGTATTTCAGCAAAACTACTGCAGTAAGAAAGTT | -7.77 ± 0.46 |  | 
AATGTTGTTGATGACCAACGCCTGGTCGCGGGGATAATTATTTATAATCAGCAACTTAACCACAAAAACCAACGCGCGGTCGCGAGAACAAAAACCAACGCCCTGTCGCGGGCTGTGAATCGAGTATTTCAGCAAAACTACTGCAGTAAGAA | < -10 |  | 
AATGTTGTTGATGACCAACGCCTGGTCGCGGGGATAATTATTTATAATCAGCAACTTAACCACAAAACAACCATATATTGATATCTCACAAAACAACCATAAGTTGATATTTTTGTGAATCGAGTATTTCAGCAAAACTACTGCAGTAAGAA | -8.86 ± 0.67 |  | 
AATGTTGTTGATGCAAAACGCCCTGTCGCGGGCCGCCGGCGGGCGCCGACTACCAGGCCAACACCCCACCAACGCGCGGTCGCGAGACACCCCACCAACGCCTGGTCGCGGGGGTGTCCGATCTGATTTCAGCAAAACTACTGCAGTAAGAA | < -10 |  | 
AATGTTGTTGATGCAACCATAAAATGATAATTAATAATTATTTATAATCAGCAACTTAACCACAAAATAATTATCATTTTATGGTTGACAAAACAACCATAAAATGATAATTATGTGAATCGAGTATTTCAGCAAAACTACTGCAGTAAGAA | -5.2 ± 1.6 |  | 
AATGTTGTTGATGCAACCATAAAGGTCGCGGGCCGCCGGCGGGCGCCGACTACCAGGCCAACACCCCACCAACGCGCGGTCGCGAGACACCCCACCAACGCCTGGTCGCGGGGGTGTCCGATCTGATTTCAGCAAAACTACTGCAGTAAGAA | < -10 |  | 
AATGTTGTTGATGCAACCATAAAGTGAATAAATATAATTATTTATAATCAGCAACTTAACCACAAAACAACCATATATTGAATAGAGACAAAACAACCATAAGTTGAATAAAATGTGAATCGAGTATTTCAGCAAAACTACTGCAGTAAGAA | -4.14 ± 1.6 |  | 
AATGTTGTTGATGCAACCATAAAGTGAGCGGGCCGCCGGCGGGCGCCGACTACCAGGCCAACACCCCACCAACGCGCGGTCGCGAGACACCCCACCAACGCCTGGTCGCGGGGGTGTCCGATCTGATTTCAGCAAAACTACTGCAGTAAGAA | -8.13 ± 0.57 |  | 
AATGTTGTTGATGCAACCATAAAGTGATATAATTATTTATAATCAGCAACTTAACCACAAAACAACCATATATTGATATCTCACAAAACAACCATAAGTTGATATTTTTGTGAATCGAGTATTTCAGCAAAACTACTGCAGTAAGAAAGTTA | -6.82 ± 0.68 |  | 
AATGTTGTTGATGCAACCATAAAGTGATATTATAATTATTTATAATCAGCAACTTAACCACAAAACAACCATATATTGATATCTCACAAAACAACCATAAGTTGATATTTTTGTGAATCGAGTATTTCAGCAAAACTACTGCAGTAAGAAAG | -5.22 ± 1.1 |  | 
AATGTTGTTGATGCAACCATAAAGTGATATTTAAGAATTATGTCGTTCTAAACAAGAGATATTAGAACAACCATATATTGATATCTCACAAAACAACCATAAGTTGATATTTTTGTGAATCGAGTATTTCAGCAAAACTACTGCAGTAAGAA | -4.29 ± 1.2 |  | 
AATGTTGTTGATGCAACCATAAAGTGATATTTAATAACTTCGTATAGCATACATTATACGAAGTTATCAACCATATATTGATATCTCACAAAACAACCATAAGTTGATATTTTTGTGAATCGAGTATTTCAGCAAAACTACTGCAGTAAGAA | -4.52 ± 0.95 |  | 
AATGTTGTTGATGCAACCATAAAGTGATATTTAATAACTTCGTATAGTATACCTTATACGAAGTTATCAACCATATATTGATATCTCACAAAACAACCATAAGTTGATATTTTTGTGAATCGAGTATTTCAGCAAAACTACTGCAGTAAGAA | -3.19 ± 0.87 |  | 
AATGTTGTTGATGCAACCATAAAGTGATATTTAATAATTACAACCATAAAGTGATATTTAACTTAACCAACCATATATTGATATCTCACAAAACAACCATAAGTTGATATTTTTGTGAATCGAGTATTTCAGCAAAACTACTGCAGTAAGAA | -7.98 ± 1.5 |  | 
AATGTTGTTGATGCAACCATAAAGTGATATTTAATAATTATCAACCATATATTGATATCTCACAAAACAACCATAAGTTGATATTTTTGTGAATCGAGTATTTCAGCAAAACTACTGCAGTAAGAAAGTTACTTCGTGGTATGGGAGGATCA | -7.99 ± 0.76 |  | 
AATGTTGTTGATGCAACCATAAAGTGATATTTAATAATTATGGCGCCGACTACCAGGCCAACACCCCACCAACGCGCGGTCGCGAGACACCCCACCAACGCCTGGTCGCGGGGGTGTCCGATCTGATTTCAGCAAAACTACTGCAGTAAGAA | -6.86 ± 1.3 |  | 
AATGTTGTTGATGCAACCATAAAGTGATATTTAATAATTATTCAACCATAAAGTGATATTTAACTTACAACCATATATTGATATCTCACAAAACAACCATAAGTTGATATTTTTGTGAATCGAGTATTTCAGCAAAACTACTGCAGTAAGAA | -3.81 ± 1.1 |  | 
AATGTTGTTGATGCAACCATAAAGTGATATTTAATAATTATTTAGCCGACTACCAGGCCAACACCCCACCAACGCGCGGTCGCGAGACACCCCACCAACGCCTGGTCGCGGGGGTGTCCGATCTGATTTCAGCAAAACTACTGCAGTAAGAA | -7.02 ± 1.2 |  | 
AATGTTGTTGATGCAACCATAAAGTGATATTTAATAATTATTTATAACAACCATAAAGTGATATTTACAACCATATATTGATATCTCACAAAACAACCATAAGTTGATATTTTTGTGAATCGAGTATTTCAGCAAAACTACTGCAGTAAGAA | -6.17 ± 1.2 |  | 
AATGTTGTTGATGCAACCATAAAGTGATATTTAATAATTATTTATAACAACCATATATTGATATCTCACAAAACAACCATAAGTTGATATTTTTCAGCAACTTAACCACAAAATGTGAATCGAGTATTTCAGCAAAACTACTGCAGTAAGAA | -5.63 ± 0.81 |  | 
AATGTTGTTGATGCAACCATAAAGTGATATTTAATAATTATTTATAACAACCATATATTGATATCTCACAAAACAACCATAAGTTGATATTTTTGTGAATCGAGTATTTCAGCAAAACTACTGCAGTAAGAAAGTTACTTCGTGGTATGGGA | -6.45 ± 1 |  | 
AATGTTGTTGATGCAACCATAAAGTGATATTTAATAATTATTTATAATCACAACCATATATTGATATCTCGCAACTTAACCACAAAAACAAAACAACCATAAGTTGATATTTTTGTGAATCGAGTATTTCAGCAAAACTACTGCAGTAAGAA | -6.71 ± 0.83 |  | 
AATGTTGTTGATGCAACCATAAAGTGATATTTAATAATTATTTATAATCAGACCAGGCCAACACCCCACCAACGCGCGGTCGCGAGACACCCCACCAACGCCTGGTCGCGGGGGTGTCCGATCTGATTTCAGCAAAACTACTGCAGTAAGAA | -6.56 ± 1.8 |  | 
AATGTTGTTGATGCAACCATAAAGTGATATTTAATAATTATTTATAATCAGCAAAGGCCAACACCCCACCAACGCGCGGTCGCGAGACACCCCACCAACGCCTGGTCGCGGGGGTGTCCGATCTGATTTCAGCAAAACTACTGCAGTAAGAA | -6.56 ± 1.3 |  | 
TGTAATGTTGATACAACCATAAAATGATAATTACACCCATAAATTGATAATTATCACACCCATAAATTGATATTGCCTCTGATCATAGTCAGACCAACATTGCTACGACCCGTATTCGCACCGACAC |  | -0.138 ± 0.063 | -0.169 ± 0.51
TGTATTGTTGATACAACCATAAAATGATAATTACACCCATAAATTGATAATTATCACACCCATAAATTGATATTGCCTCTGATCATAGTCAGACCAACATTGCTACGACCCGTATTCGCACCGACAC |  | -0.0404 ± 0.0046 | 0.421 ± 0.14
